# Target: HLA-A*1101 (human)
# Conditions: not given
Binder,binding affinity ratio (IC50 of standard peptide / IC50 of test peptide),relative binding ratio (IC50 of standard peptide / IC50 of test peptide),binding affinity ratio (IC50 of standard peptide / IC50 of test peptide) (ratio to standard peptide)
CIDFYSRIR (modifications not checked) [HPV18 E6 68 …],0.0001,–,–
CATMCKHYR (modifications not checked) [HPV18 E1 412-420 peptide …],–,0.011,–
MMIEPPKLR (modifications not checked) [HPV16 E1 305 …],–,–,0.0086
LVRNFKSDK (modifications not checked) [HPV18 E1 229 …],0.0002,–,–
"SVAALYWYR (modifications not checked) [HPV18 E1 peptide … (position 322, 9 amino acids)]",–,8.8,–
NMSQWIRFR (modifications not checked) [HPV18 E1 428 …],0.0012,–,–
QMNMSQWIR (modifications not checked) [HPV18 E1 426 …],0.0023,–,–
GVSFSELVR (modifications not checked) [HPV16 E1 216 …],–,0.018,–
FITFLGALK (modifications not checked) [HPV18 E1 460-468 peptide …],–,0.037,–
KDCATMCRHY (modifications not checked),–,0.0002,–
"TTLEQQYNK (modifications not checked) [… (HPV16 E6, position 93, 9 amino acids)]",–,0.29,–
"LLIRCINCQK (modifications not checked) [… (HPV16 E6, position 106, 10 amino acids)]",–,–,0.18
LLVRYKCGK (modifications not checked) [HPV16 E1 277 …],–,–,0.0033
"KFYSKISEYR (modifications not checked) [… (HPV16 E6, position 75, 10 amino acids)]",–,–,0.0002
EVFEFAFK (modifications not checked) [HPV18 E6 43 EVFEFAFK],0.018,–,–
MSFLTALKR (modifications not checked) [HPV16 E1 454 …],–,–,0.098
DIEITCVYCK (modifications not checked) [HPV18 E6 27 …],0.0021,–,–
LLIRCLRCQK (modifications not checked) [HPV18 E6 101 …],0.12,–,–
DSVYGDTLEK (modifications not checked) [HPV18 E6 83 …],0.0051,–,–
LVRPFKSNK (modifications not checked) [HPV16 E1 222 …],–,–,1.8
NSNAAAFLK (modifications not checked) [HPV18 E1 393 …],0.37,–,–
KDCATMCRH (modifications not checked),–,0.0002,–
LIRCLRCQK (modifications not checked) [HPV18 E6 102 …],0.0012,–,–
ALLRYKCGK (modifications not checked) [HPV18 E1 284-292 peptide …],–,0.14,–
MLIQPPKLR (modifications not checked) [HPV18 E1 312 …],0.0014,–,–
"LIRCINCQK (modifications not checked) [… (HPV16 E6, position 107, 9 amino acids)]",–,–,0.0009

# Target: HLA-A*0201 (human)
# Conditions: not given
Binder,binding affinity ratio (IC50 of the standard peptide / IC50 of the test peptide),relative binding ratio (IC50 of standard peptide / IC50 of test peptide) (ratio to standard peptide),relative binding ratio (IC50 of standard peptide / IC50 of test peptide),binding affinity ratio (IC50 of standard peptide / IC50 of test peptide)
EITCVYCKTV (modifications not checked),0.0002,–,–,–
"TLSFVCPWCA (modifications not checked) [HPV18 E7 peptide … (position 93, 10 amino acids)]",–,0.0027,–,–
ALDGNLVSM (modifications not checked) [HPV16 E1 … (position 539)],–,–,0.027,–
"TLEQQYNKPL (modifications not checked) [HPV16 E6 peptide … (position 94, 10 amino acids)]",–,–,0.0001,–
"QLCTELQTTI (modifications not checked) [HPV16 E6 peptide … (position 21, 10 amino acids)]",–,–,0.0012,–
"PVDLLCHEQL (modifications not checked) [HPV18 E7 peptide … (position 22, 10 amino acids)]",–,0.0001,–,–
"KLRSTAAAL (modifications not checked) [HPV31 E1 peptide … (position 291, 9 amino acids)]",–,0.0003,–,–
"DIRTLEDLL (modifications not checked) [HPV16 E7 peptide … (position 75, 9 amino acids)]",–,–,0.0003,–
CVYCKTVLEL (modifications not checked) [HPV18 E6 32 …],0.0001,–,–,–
"QLFLNTLSFV (modifications not checked) [HPV18 E7 peptide … (position 88, 10 amino acids as printed)]",–,0.11,–,–
GLYNLLIRCL (modifications not checked) [HPV18 E6 peptide … (position 97)],–,–,0.0036,–
"FVNSTSHFWL (modifications not checked) [HPV18 E1 peptide … (position 508, 10 amino acids)]",0.062,–,–,–
"TLSFVCPWCA (modifications not checked) [HPV45 E7 peptide … (position 94, 10 amino acids)]",–,0.0027,–,–
CVYCKTVL (modifications not checked) [HPV18 E6 32 CVYCKTVL],0.0002,–,–,–
"GTLGIVCPI (modifications not checked) [HPV16 E7 peptide … (position 85, 9 amino acids)]",–,–,0.021,–
FLKSNSQAKI (modifications not checked) [HPV31 E1 372 peptide … (SEQ ID NO: 4704)],–,0.0011,–,–
"FLKSNSQAKI (modifications not checked) [HPV33 E1 peptide … (position 385, 10 amino acids)]",–,0.0011,–,–
VVYRDSIPHA (modifications not checked) [HPV18 E6 peptide … (position 54)],–,–,0.0003,–
ILECVYCKQQL (modifications not checked) [HPV16 E6 34 …],–,–,–,0.0004
FAFRDLCIV (modifications not checked) [HPV16 E6 52 …],–,–,–,0.051
ALDGNPISI (modifications not checked) [HPV18 E1 546 peptide …],–,0.021,–,–
PLNPAEKLRHL (modifications not checked) [HPV18 E6 peptide … (position 111)],–,–,0.0001,–
"FLRYQQIEFI (modifications not checked) [HPV18 E1 peptide … (position 452, 10 amino acids)]",0.0025,–,–,–
DLLCHEQL (modifications not checked) [HPV18 E7 peptide DLLCHEQL (position 24)],–,–,0.0001,–
FAFKDLFVV (modifications not checked) [HPV18 E6 peptide … (position 47)],–,–,0.085,–
"FLGALKSFL (modifications not checked) [HPV18 E1 peptide … (position 463, 9 amino acids)]",0.045,–,–,–
EVFEFAFKDL (modifications not checked) [HPV18 E6 peptide … (position 43)],–,–,0.0009,–
ALYWYRTGI (modifications not checked) [HPV18 E1 325 peptide …],–,0.0032,–,–
VMGDTPEWI (modifications not checked) [HPV18 E1 339 peptide … (SEQ ID NO: 3614)],–,–,0.007,–
"FILYAHIQCL (modifications not checked) [HPV18 E1 peptide … (position 265, 10 amino acids)]",0.032,–,–,–

# Same assay, conditions: remark: other sources report otherwise
Binder,relative binding ratio (IC50 of standard peptide / IC50 of test peptide),binding affinity ratio (IC50 of the standard peptide / IC50 of the test peptide)
ELTEVFEFA (modifications not checked) [HPV18 E6 peptide … (position 40)],0.0012,–
"KLPDLCTEL (modifications not checked) [HPV45 E6 peptide … (position 13, 9 amino acids)]",0.0035,–
KLPDLCTEL (modifications not checked) [HPV18 E6 peptide … (position 13)],0.0035,–
"QLCTELQTT (modifications not checked) [HPV16 E6 peptide … (position 21, 9 amino acids)]",0.0001,–
EITCVYCKT (modifications not checked),–,0.0001

# Target: HLA-A*0301 (human)
# Conditions: not given
Binder,binding affinity ratio (IC50 of standard peptide / IC50 of test peptide),binding affinity ratio (IC50 of standard peptide / IC50 of test peptide) (ratio to standard peptide)
MMIEPPKLR (modifications not checked) [HPV16 E1 305 …],0.001,–
GVSFSELVR (modifications not checked) [HPV16 E1 216 …],–,0.0011
KDCATMCRHY (modifications not checked),–,0.0005
LLVRYKCGK (modifications not checked) [HPV16 E1 277 …],0.0043,–
MSFLTALKR (modifications not checked) [HPV16 E1 454 …],0.087,–
LVRPFKSNK (modifications not checked) [HPV16 E1 222 …],0.07,–
KDCATMCRH (modifications not checked),–,0.0011

# From US7026443
